Measurements: patent publication US20200308290A1 (AbbVie / Abbott, published 2020)
Positions count from the first letter of the chain named. In names and notes the source's numbering stands. Where two headings read alike, the source gives them in different places.

Columns and labels:
[1] = target: T1, human CD25 (recombinant soluble) (human, UniProt P01589 22-240); test: competitive ELISA with biotinylated daclizumab on CD25
T1 construct: extracellular domain; bought protein; also called IL2-Rα; recombinant human IL2-Rα
T1 sequence (looked up): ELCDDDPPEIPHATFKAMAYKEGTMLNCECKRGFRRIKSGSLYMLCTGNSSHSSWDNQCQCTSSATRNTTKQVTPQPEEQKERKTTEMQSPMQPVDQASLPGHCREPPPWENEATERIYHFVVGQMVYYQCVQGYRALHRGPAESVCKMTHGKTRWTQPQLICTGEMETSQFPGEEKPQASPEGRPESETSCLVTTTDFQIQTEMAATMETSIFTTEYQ
Protocol: Wells of 96-well ELISA plates (Nunc-Immuno MaxiSorp plates, Nalge Nunc, Rochester, N.Y.) were coated with 100 μL of 0.2 μg/mL CD25 (Pepro Tech Inc., Rocky Hill, N.J.) in 0.2 M sodium carbonate-bicarbonate buffer (pH 9.4, Pierce, Rockford, Ill.) overnight at 4° C. After washing with Wash Buffer, wells were blocked with 200 μL of Superblock Blocking Buffer (Pierce, Rockford, Ill.) for 30 min and then washed. […] The plate was then washed with washing buffer three times. After washing, 100 μL of 1 μg/mL HRP-conjugated Streptavidin (Pierce) diluted in ELISA buffer was added to each well. After 30 minutes of incubation at room temperature, plates were washed and bound antibodies were detected by addition of ABTS substrate (Kirkegaard & Perry Laboratories, Gaithersburg, Md.). […] PRISM (GraphPad, San Diego) and reported as IC₅₀ wild type/IC₅₀ mutant (fold improvement over wild type control).

human CD25 on cells = target: T2, human CD25 on cells (human, UniProt P01589 22-272); test: cell-based or functional assay
T2 sequence (looked up): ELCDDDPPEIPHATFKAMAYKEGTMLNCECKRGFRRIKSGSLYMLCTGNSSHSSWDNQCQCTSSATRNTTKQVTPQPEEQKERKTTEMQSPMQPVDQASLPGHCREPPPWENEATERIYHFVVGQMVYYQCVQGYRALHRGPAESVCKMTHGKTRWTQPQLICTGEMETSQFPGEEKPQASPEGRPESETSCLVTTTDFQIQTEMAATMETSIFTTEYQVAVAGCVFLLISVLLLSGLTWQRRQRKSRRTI

human CD25 [2] = target: T3, human CD25 (human, UniProt P01589 22-213, limits assumed); test: competition ELISA vs biotinylated daclizumab, fold over wild type
T3 construct: Recombinant soluble human CD25, coated on plates (ELISA) or injected over captured antibody (BIAcore); also called hCD25; IL2-R alpha
T3 sequence (looked up): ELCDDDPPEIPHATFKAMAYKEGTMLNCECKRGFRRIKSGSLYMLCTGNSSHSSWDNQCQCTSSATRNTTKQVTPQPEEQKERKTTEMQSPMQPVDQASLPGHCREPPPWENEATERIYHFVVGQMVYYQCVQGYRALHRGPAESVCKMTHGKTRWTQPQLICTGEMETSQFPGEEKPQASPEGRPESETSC

human CD25 [3] = target: T3, human CD25; test: SPR (BIAcore)
human CD25 [4] = target: T3, human CD25; test: competition ELISA vs biotinylated daclizumab, fold over wild type; remark: listed apart in the source
CD25 (recombinant) [5] = target: T4, CD25 (recombinant) (human, UniProt P01589 22-213, limits assumed); test: ELISA, relative to wild type; * = similar to WT
T4 construct: bought protein; also called IL2-R alpha; IL2-Rα
T4 sequence (looked up): T3 sequence (looked up)

CD25 (recombinant) [6] = target: T4, CD25 (recombinant); test: SPR (BIAcore)
human CD25 [7] = target: T3, human CD25; test: SPR (BIAcore); remark: listed apart in the source
cynomolgous monkey CD25 = target: T5, cynomolgous monkey CD25 (cynomolgous monkey); test: SPR (BIAcore), cynomolgous CD25
T5 construct: also called cmCD25; cm

B1: RKGFN (antibody, IgG1, name in Kabat numbering, V domains shown)
VH: QVQLVQSGAEVKKPGSSVKVSCKASGYTFTSYRMHWVRQAPGQGLEWIGYIRPKGGFTNYNQKFKDKATITADESTNTAYMELSSLRSEDTAVYYCARGGGVFDYWGQGTLVTVSS
VL: DIQMTQSPSTLSASVGDRVTITCSASSSISYMHWYQQKPGKAPKLLIYTTSNLASGVPARFSGSGSGTEFTLTISSLQPDDFATYYCHQRSTYPLTFGQGTKVEVK
notes: soluble IgG1 from the VH library; Kabat numbers; also called VH variant RKGFN
[1]
  fold affinity over the parental antibody: ~10 fold

B2: Variant C41 (antibody, name in Kabat numbering, V domains shown)
VH: B1 VH with I48M, R52S, K54R, G55S, F57Y, N59E
VL: B1 VL
notes: Isotype as printed: G2M3.QL
Human CD25 on cells
  Kit225 (fold improvement in inhibition of IL2-induced Kit225 proliferation): 2.5 fold
Human CD25 [2]
  ELISA fold improvement: 6.1 fold

B3: Variant C43 (antibody, name in Kabat numbering, V domains shown)
VH: B1 VH with I48M, R52S, K54R, G55S, F57Y, N59E
VL: B1 VL with N52E
notes: Isotype as printed: G2M3.QL
Human CD25 [2]
  ELISA fold improvement: 4.2 fold

B4: SNKYL (antibody, IgG1, name in Kabat numbering, V domains shown)
VH: B1 VH with R52S, K54N, G55K, F57Y, N59L
VL: B1 VL
notes: soluble IgG1 from the VH library; Kabat numbers; also called VH variant SNKYL
[1]
  fold affinity over the parental antibody: ~10 fold

B5: QRKFH (antibody, IgG1, name in Kabat numbering, V domains shown)
VH: B1 VH with R52Q, K54R, G55K, N59H
VL: B1 VL
notes: soluble IgG1 from the VH library; Kabat numbers; also called VH variant QRKFH
[1]
  fold affinity over the parental antibody: ~10 fold

B6: Variant C9 (antibody, name in Kabat numbering, V domains shown)
VH: B1 VH with G55R, F57Y, N59Q
VL: B1 VL
notes: Isotype as printed: G1 fa
Human CD25 [3]
  Kd: 181 pM
Human CD25 [4]
  ELISA fold improvement: 3.97 fold

B7: Variant C10 (antibody, name in Kabat numbering, V domains shown)
VH: B1 VH with K54R, G55R, F57Y, N59Q
VL: B1 VL
notes: Isotype as printed: G1 fa
Human CD25 [3]
  Kd: 244 pM
Human CD25 [4]
  ELISA fold improvement: 3.91 fold

B8: daclizumab variant S76 (antibody, IgG1, name in Kabat numbering, V domains shown)
VH: B1 VH with I48L, R52N, K54S, G55T, F57Y, N59E
VL: B1 VL
notes: IgG1; Kabat positions; also called I48L; DAC I48L
CD25 (recombinant) [5]
  ELISA (wt = 1): 1.32 fold (wt = 1)
CD25 (recombinant) [6]
  Fold improvement (KD): 0.9 fold over wild type
  Kd: 597 pM
  koff: 0.000222 s⁻¹
  kon: 372000 M⁻¹ s⁻¹

B9: Variant C28 (antibody, V domains shown)
VH: B1 VH with I48M, R52N, K54S, G55S, F57Y, N59E
VL: B1 VL with S28K, N52D
notes: Isotype as printed: G2M3.QL
Human CD25 on cells
  Kit225 (fold improvement in inhibition of IL2-induced Kit225 proliferation): 2.8 fold
  PBMC (fold improvement in inhibition of IL2-induced PHA blast proliferation): 5.8 fold
Human CD25 [7]
  Kd: 54 pM
Human CD25 [2]
  ELISA fold improvement: 1.6 fold
Cynomolgous monkey CD25
  Kd: 49 pM

B10: Variant C34 (antibody, V domains shown)
VH: B1 VH with I48M, R52K, K54S, G55R, F57Y, N59E
VL: B1 VL with S28K, N52D
notes: Isotype as printed: G2M3.QL
Human CD25 on cells
  Kit225 (fold improvement in inhibition of IL2-induced Kit225 proliferation): 3.1 fold
  PBMC (fold improvement in inhibition of IL2-induced PHA blast proliferation): 6.4 fold
Human CD25 [7]
  Kd: 21 pM
Human CD25 [2]
  ELISA fold improvement: 7.8 fold
Cynomolgous monkey CD25
  Kd: 88 pM

B11: RKGFE (antibody, IgG1, name in Kabat numbering, V domains shown)
VH: B1 VH with N59E
VL: B1 VL
notes: soluble IgG1 from the VH library; Kabat numbers; also called VH variant RKGFE
[1]
  fold affinity over the parental antibody: ~10 fold

B12: Variant C37 (antibody, name in Kabat numbering, V domains shown)
VH: B1 VH with I48M, R52K, K54S, G55S, F57Y, N59E
VL: B1 VL with N52E
notes: Isotype as printed: G2M3.QL
Human CD25 [2]
  ELISA fold improvement: 4.1 fold

B13: RRKFE (antibody, IgG1, name in Kabat numbering, V domains shown)
VH: B1 VH with K54R, G55K, N59E
VL: B1 VL
notes: soluble IgG1 from the VH library; Kabat numbers; also called VH variant RRKFE
[1]
  fold affinity over the parental antibody: ~10 fold
